T1: human MDGA1 extracellular domain (MDGA1_(ECTO); Gln19-Lys925) (human, UniProt Q8NFP4-1 19-925)
T1 construct: human MAM domain-containing glycosylphosphatidylinositol anchor protein 1, Gln19-Lys925; Not deglycosylated; also called human MDGA1_(ECTO); source: HEK293T, transient transfection, purified (IMAC, SEC)
T1 sequence (looked up): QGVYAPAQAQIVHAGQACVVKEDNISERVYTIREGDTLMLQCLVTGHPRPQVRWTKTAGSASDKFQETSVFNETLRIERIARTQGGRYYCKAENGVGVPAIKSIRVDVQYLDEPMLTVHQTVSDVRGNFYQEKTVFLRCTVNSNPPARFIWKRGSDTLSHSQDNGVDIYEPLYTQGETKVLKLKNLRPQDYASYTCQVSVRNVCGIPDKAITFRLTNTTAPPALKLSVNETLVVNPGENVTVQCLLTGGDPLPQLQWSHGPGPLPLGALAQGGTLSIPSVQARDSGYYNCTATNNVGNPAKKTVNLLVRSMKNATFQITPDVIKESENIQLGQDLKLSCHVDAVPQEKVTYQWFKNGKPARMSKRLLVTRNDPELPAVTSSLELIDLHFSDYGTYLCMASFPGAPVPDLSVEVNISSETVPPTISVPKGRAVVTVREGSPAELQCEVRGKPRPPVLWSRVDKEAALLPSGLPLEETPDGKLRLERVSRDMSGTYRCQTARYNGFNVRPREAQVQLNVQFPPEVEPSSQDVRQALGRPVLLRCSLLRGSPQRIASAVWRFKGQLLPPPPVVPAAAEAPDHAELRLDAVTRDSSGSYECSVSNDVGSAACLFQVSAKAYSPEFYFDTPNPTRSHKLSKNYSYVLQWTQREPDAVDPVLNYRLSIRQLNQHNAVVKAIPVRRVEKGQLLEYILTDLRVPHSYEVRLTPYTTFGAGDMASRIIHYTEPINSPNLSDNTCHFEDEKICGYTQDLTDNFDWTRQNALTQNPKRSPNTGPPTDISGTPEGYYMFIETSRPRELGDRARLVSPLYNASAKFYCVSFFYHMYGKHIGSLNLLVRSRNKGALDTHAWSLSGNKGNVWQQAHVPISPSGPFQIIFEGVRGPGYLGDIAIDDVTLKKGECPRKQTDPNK

T2: human MDGA2 extracellular domain (MDGA2_(ECTO); Gln21-Lys927) (human, UniProt Q7Z553 21-927)
T2 construct: human MAM domain-containing glycosylphosphatidylinositol anchor protein 2, Gln21-Lys927; Not deglycosylated; source: HEK293T, transient transfection, purified (IMAC, SEC)
T2 sequence (looked up): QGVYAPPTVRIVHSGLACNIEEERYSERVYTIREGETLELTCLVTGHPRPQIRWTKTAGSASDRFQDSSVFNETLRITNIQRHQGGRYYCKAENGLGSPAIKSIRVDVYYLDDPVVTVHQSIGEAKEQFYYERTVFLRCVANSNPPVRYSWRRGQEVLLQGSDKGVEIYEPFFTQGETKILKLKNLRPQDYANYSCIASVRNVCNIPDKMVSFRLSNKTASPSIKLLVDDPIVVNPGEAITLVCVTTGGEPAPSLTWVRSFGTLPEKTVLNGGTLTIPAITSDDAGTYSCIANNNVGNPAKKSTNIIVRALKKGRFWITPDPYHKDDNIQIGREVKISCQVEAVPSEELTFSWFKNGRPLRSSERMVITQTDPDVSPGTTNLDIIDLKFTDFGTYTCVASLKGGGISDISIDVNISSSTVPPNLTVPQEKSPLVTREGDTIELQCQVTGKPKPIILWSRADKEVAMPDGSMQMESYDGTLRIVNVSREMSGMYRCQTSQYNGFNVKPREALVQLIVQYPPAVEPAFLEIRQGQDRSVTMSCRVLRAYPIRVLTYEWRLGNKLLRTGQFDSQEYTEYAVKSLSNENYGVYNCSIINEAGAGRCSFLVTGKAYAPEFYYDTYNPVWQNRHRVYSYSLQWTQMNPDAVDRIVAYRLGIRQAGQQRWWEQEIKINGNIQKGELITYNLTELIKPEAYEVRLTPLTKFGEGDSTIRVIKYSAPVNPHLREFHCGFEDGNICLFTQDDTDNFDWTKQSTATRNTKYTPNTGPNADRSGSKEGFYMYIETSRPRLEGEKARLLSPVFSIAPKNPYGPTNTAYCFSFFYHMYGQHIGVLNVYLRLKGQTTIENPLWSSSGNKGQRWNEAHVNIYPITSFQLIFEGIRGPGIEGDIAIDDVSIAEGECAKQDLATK


Columns and labels:
[1] = target: T1, human MDGA1 extracellular domain …; assay: SPR; biotinylated NL_(ECTO)-Avitag variants captured from dialysed conditioned medium on streptavidin CM5 chip (500 RU; 550 RU for the ΔSite series; 1000 RU for NL3 and NL3 Arg451Cys in the R451C series); β-NRX1_(LNS6)(±4), MDGA1_(ECTO), MDGA2_(ECTO) injected, 15 concentrations, two-fold series from 50 μM; TBS-CTB (10 mM Tris pH 7.4, 150 mM NaCl, 3 mM CaCl2, 0.005% Tween-20, 1.0 g/L BSA); equilibrium analysis, 1:1 …; settings: both partners purified
[2] = target: T2, human MDGA2 extracellular domain …; assay: as above; settings: both partners purified

Binder | binding result [1] | binding result [2] | Kd [1] [nM] | Kd [2] [nM]
human NL2(+A)_(ECTO), immobilised for SPR (domain or fragment, UniProt Q8NFZ4 38-612, looked up, biotin on the Avitag (in vivo biotinylation by BirA), source: HEK293T, co-transfected with ER-resident BirA; dialysed conditioned medium, captured on streptavidin chip) EERFPVVNTAYGRVRGVRRELNNEILGPVVQFLGVPYATPPLGARRFQPPEAPASWPGVRNATTLPPACPQNLHGALPAIMLPVWFTDNLEAAATYVQNQSEDCLYLNLYVPTEDGPLTKKRDEATLNPPDTDIRDPGKKPVMLFLHGGSYMEGTGNMFDGSVLAAYGNVIVATLNYRLGVLGFLSTGDQAAKGNYGLLDQIQALRWLSENIAHFGGDPERITIFGSGAGASCVNLLILSHHSEGLFQKAIAQSGTAISSWSVNYQPLKYTRLLAAKVGCDREDSAEAVECLRRKPSRELVDQDVQPARYHIAFGPVVDGDVVPDDPEILMQQGEFLNYDMLIGVNQGEGLKFVEDSAESEDGVSASAFDFTVSNFVDNLYGYPEGKDVLRETIKFMYTDWADRDNGEMRRKTLLALFTDHQWVAPAVATAKLHADYQSPVYFYTFYHHCQAEGRPEWADAAHGDELPYVFGVPMVGATDLFPCNFSKNDVMLSAVVMTYWTNFAKTGDPNQPVPQDTKFIHTKPNRFEEVVWSKFNSKEKQYLHIGLKPRVRDNYRANKVAFWLELVPHLHNLH | binds | binds |  | 
human NL4_(ECTO) (NL4(X); Gln42-Glu602), immobilised for SPR (domain or fragment, biotin on the Avitag (in vivo biotinylation by BirA), human neuroligin-4 (X-linked), Gln42-Glu602; source: HEK293T, co-transfected with ER-resident BirA; dialysed conditioned medium, captured on streptavidin chip) QAQYPVVNTNYGKIRGLRTPLPNEILGPVEQYLGVPYASPPTGERRFQPPEPPSSWTGIRNTTQFAAVCPQHLDERSLLHDMLPIWFTANLDTLMTYVQDQNEDCLYLNIYVPTEDDIHDQNSKKPVMVYIHGGSYMEGTGNMIDGSILASYGNVIVITINYRLGILGFLSTGDQAAKGNYGLLDQIQALRWIEENVGAFGGDPKRVTIFGSGAGASCVSLLTLSHYSEGLFQKAIIQSGTALSSWAVNYQPAKYTRILADKVGCNMLDTTDMVECLRNKNYKELIQQTITPATYHIAFGPVIDGDVIPDDPQILMEQGEFLNYDIMLGVNQGEGLKFVDGIVDNEDGVTPNDFDFSVSNFVDNLYGYPEGKDTLRETIKFMYTDWADKENPETRRKTLVALFTDHQWVAPAVATADLHAQYGSPTYFYAFYHHCQSEMKPSWADSAHGDEVPYVFGIPMIGPTELFSCNFSKNDVMLSAVVMTYWTNFAKTGDPNQPVPQDTKFIHTKPNRFEEVAWSKYNPKDQLYLHIGLKPRVRDHYRATKVAFWLELVPHLHNLNE | binds | binds |  | 
human NL3(–A)_(ECTO) (Gln38-Asp636), immobilised for SPR (domain or fragment, UniProt Q9NZ94-1 38-636, looked up, biotin on the Avitag (in vivo biotinylation by BirA), also called NL3_(ECTO); source: HEK293T, co-transfected with ER-resident BirA; dialysed conditioned medium, captured on streptavidin chip) QAPAPTVNTHFGKLRGARVPLPSEILGPVDQYLGVPYAAPPIGEKRFLPPEPPPSWSGIRNATHFPPVCPQNIHTAVPEVMLPVWFTANLDIVATYIQEPNEDCLYLNVYVPTEDDIRDSGAKPVMVYIHGGSYMEGTGNMIDGSILASYGNVIVITLNYRVGVLGFLSTGDQAAKGNYGLLDQIQALRWVSENIAFFGGDPRRITVFGSGIGASCVSLLTLSHHSEGLFQRAIIQSGSALSSWAVNYQPVKYTSLLADKVGCNVLDTVDMVDCLRQKSAKELVEQDIQPARYHVAFGPVIDGDVIPDDPEILMEQGEFLNYDIMLGVNQGEGLKFVEGVVDPEDGVSGTDFDYSVSNFVDNLYGYPEGKDTLRETIKFMYTDWADRDNPETRRKTLVALFTDHQWVEPSVVTADLHARYGSPTYFYAFYHHCQSLMKPAWSDAAHGDEVPYVFGVPMVGPTDLFPCNFSKNDVMLSAVVMTYWTNFAKTGDPNKPVPQDTKFIHTKANRFEEVAWSKYNPRDQLYLHIGLKPRVRDHYRATKVAFWKHLVPHLYNLHD | binds | binds |  | 
human NL5_(ECTO) (NL4(Y); Gln42-Glu602), immobilised for SPR (domain or fragment, biotin on the Avitag (in vivo biotinylation by BirA), human neuroligin-5 (neuroligin-4, Y-linked), Gln42-Glu602; source: HEK293T, co-transfected with ER-resident BirA; dialysed conditioned medium, captured on streptavidin chip) QAQYPVVNTNYGKIQGLRTPLPSEILGPVEQYLGVPYASPPTGERRFQPPESPSSWTGIRNATQFSAVCPQHLDERFLLHDMLPIWFTTSLDTLMTYVQDQNEDCLYLNIYVPMEDDIHEQNSKKPVMVYIHGGSYMEGTGNMIDGSILASYGNVIVITINYRLGILGFLSTGDQAAKGNYGLLDQIQALRWIEENVGAFGGDPKRVTIFGSGAGASCVSLLTLSHYSEGLFQKAIIQSGTALSSWAVNYQPAKYTRILADKVGCNMLDTTDMVECLKNKNYKELIQQTITPATYHIAFGPVIDGDVIPDDPQILMEQGEFLNYDIMLGVNQGEGLKFVDGIVDNEDGVTPNDFDFSVSNFVDNLYGYPEGKDTLRETIKFMYTDWADKENPETRRKTLVALFTDHQWVAPAVATADLHAQYGSPTYFYAFYHHCQSEMKPSWADSAHGDEVPYVFGIPMIGPTELFSCNFSKNDVMLSAVVMTYWTNFAKTGDPNQPVPQDTKFIHTKPNRFEEVAWSKYNPKDQLYLHIGLKPRVRDHYRATKVAFWLELVPHLHNLNE | binds | binds |  | 

Further lines, results first:

binding result [1] | binding result [2] | Kd [1] [nM] | Kd [2] [nM] | Binder
 |  | ~2000 | ~1000 | human NL2(–A)_(ECTO) (Glu38-His612), immobilised for SPR (domain or fragment, UniProt Q8NFZ4 38-612, looked up, biotin on the Avitag (in vivo biotinylation by BirA), also called NL2_(ECTO); source: HEK293T, co-transfected with ER-resident BirA; dialysed conditioned medium, captured on streptavidin chip) EERFPVVNTAYGRVRGVRRELNNEILGPVVQFLGVPYATPPLGARRFQPPEAPASWPGVRNATTLPPACPQNLHGALPAIMLPVWFTDNLEAAATYVQNQSEDCLYLNLYVPTEDDIRDPGKKPVMLFLHGGSYMEGTGNMFDGSVLAAYGNVIVATLNYRLGVLGFLSTGDQAAKGNYGLLDQIQALRWLSENIAHFGGDPERITIFGSGAGASCVNLLILSHHSEGLFQKAIAQSGTAISSWSVNYQPLKYTRLLAAKVGCDREDSAEAVECLRRKPSRELVDQDVQPARYHIAFGPVVDGDVVPDDPEILMQQGEFLNYDMLIGVNQGEGLKFVEDSAESEDGVSASAFDFTVSNFVDNLYGYPEGKDVLRETIKFMYTDWADRDNGEMRRKTLLALFTDHQWVAPAVATAKLHADYQSPVYFYTFYHHCQAEGRPEWADAAHGDELPYVFGVPMVGATDLFPCNFSKNDVMLSAVVMTYWTNFAKTGDPNQPVPQDTKFIHTKPNRFEEVVWSKFNSKEKQYLHIGLKPRVRDNYRANKVAFWLELVPHLHNLH
binds | binds |  |  | human NL3(+A1)_(ECTO), immobilised for SPR (domain or fragment, UniProt Q9NZ94-1 38-636, looked up, biotin on the Avitag (in vivo biotinylation by BirA), source: HEK293T, co-transfected with ER-resident BirA; dialysed conditioned medium, captured on streptavidin chip) QAPAPTVNTHFGKLRGARVPLPSEILGPVDQYLGVPYAAPPIGEKRFLPPEPPPSWSGIRNATHFPPVCPQNIHTAVPEVMLPVWFTANLDIVATYIQEPNEDCLYLNVYVPTEDVKRISKECARKPNKKICRKGDIRDSGAKPVMVYIHGGSYMEGTGNMIDGSILASYGNVIVITLNYRVGVLGFLSTGDQAAKGNYGLLDQIQALRWVSENIAFFGGDPRRITVFGSGIGASCVSLLTLSHHSEGLFQRAIIQSGSALSSWAVNYQPVKYTSLLADKVGCNVLDTVDMVDCLRQKSAKELVEQDIQPARYHVAFGPVIDGDVIPDDPEILMEQGEFLNYDIMLGVNQGEGLKFVEGVVDPEDGVSGTDFDYSVSNFVDNLYGYPEGKDTLRETIKFMYTDWADRDNPETRRKTLVALFTDHQWVEPSVVTADLHARYGSPTYFYAFYHHCQSLMKPAWSDAAHGDEVPYVFGVPMVGPTDLFPCNFSKNDVMLSAVVMTYWTNFAKTGDPNKPVPQDTKFIHTKANRFEEVAWSKYNPRDQLYLHIGLKPRVRDHYRATKVAFWKHLVPHLYNLHD

Source: PMC5563082, “Structural Mechanism for Modulation of Synaptic Neuroligin-Neurexin Signaling by MDGA Proteins” (Neuron, 2017)
